In a protein production outcome set (Wang et al. 2014):

Assay: label from the status in PepcDB records
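Further: failed if final PepcDB status was selected cloned or expressed and not failed if soluble or beyond.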

**Q.** Which protein production does the source give for “MENNGEMNAQPELSGIIDITKTYMYEKLWNICAGPLCVLPKPGEKVYYFPQGHIELIENSTRDELDHIRPIFDLPSKLRCRVVAIDRKVDKNTDEVYAQISLMPDTTDMSQPISTQNLVAKDLYGQEWSFKHVFRGTPQRHMFTSGGGWSVFATTKRLIVGDIFVLLRGENGELRFGIRRAKHQQGHIPSSVISANCMQHGVIASVVNAFKTKCMFNVVYKPSYDKFVDAMNNNYIVGSRFRMQFEGKDFSEKRYDGTIIGVNDMSPHWKDSEWRSLKVQWDELSPFLRPNQVSPWDIEHLIPSSDISQSSATLSNLWTCQEIGQRSMNSPISVPEFSYPNAIEDSKFLSGLLLNHSLLAIPNENYNSDQMIQPRKEDITTEATTSCLLFGVDLTKVHMQGVAISRAVDLTAMHGYNQLIQKLEELFDLKDELRTRNQWEIVFTNNEGAEMLVGDDPWPEFCNMAKRIFICSKEEIKKMKLKNKFFQPESKALTSSDVPPNVTDN” here?
**A.** Its protein production is “failed”.

**Q.** With “MENNPNNNQASLERNELHNTIWKVANELRGSVDGWDFKQYVLGILFYRYISENMTHYINKEERKRDPSFDYAKLSDEKAERGRKHLIEQKGFFIPPSALFCNALKNACHNEDLNVTLQNIFNEIEKSSLGTPSEENVKGLFADLDVNSNKLGSSHQNRVEKLTKILEAIGGMQLGDYLKSGIDVFGDAYEYLMAMYASNAGKSGGEFFTPQEVSELLAKITLHGQESVNKVYDPCCGSGSLLLQFSKVLGDKNVSKGYFGQEINLTTYNLCRINMFLHDINYSKFHIAHGDTLLDPKHEDDEPFDAIVSNPPYSTKWVGDSNPILINDERFSPAGVLAPKNAADLAFTMHMLSYLSNSGTAAIVEFPGVLYRGNAEAKIREYLVKENVIDCVIALPDNLFFGTSIATCILVLKKNKQDDTTLFIDASKEFVKEGKKNKLKERNREKILQTYIERKEIKHFCALANIEKIKENDYNLSVNRYVEQEDTKEAIDIKALNSEIAQIVEKQSALRNRLESIIKELEGGQNA” as the sequence, how does the protein production read?
**A.** The protein production was “failed”.

**Q.** With “MEPGLDGGYLLLGVDWAINDKGDTVYRPVGLPDPDKVQRDLASQCASMLNVALRPEMQLEQVGGKTLLVVYVPEADVTHKPIYKKATGLPGGAYRRIGSSDQRCVLEHHHHHH” as the sequence, how does the protein production read?
**A.** The protein production was “failed”.

**Q.** For “MEPKVTIHRYYSRQAKYEGAVEADLELCIKHCGGDVVRIELVNRLHGIQLQRKLRRLLLLMFLSIAYFVGTCGFDNRTISFLQPRILYPLITCASVAILLIRSTLNLVQAERLFYSWDMALQMETVRSFGRESVLCVQRGHIEDIVLNEVIEDLDVKYMLILRTKGSQFKKRPIIPLFNSQSPSIECLQHTYHVLHKYWLNSTKDRSEESYSKDKQSLVNS”, which protein production is on record?
**A.** The protein production was “failed”.

**Q.** Which protein production does the source give for “MEQEILALFEKILSRKVGFNDELIESDILDSILAVDLVLEVQDVYGCVIPPTEVATVLKTPADLARYIEENRG” here?
**A.** The protein production was “failed”.

**Q.** With “MEQFSFIACMPDIPGALHRAAEIITRYEGNINRIQYDRRIDLHTVFFEVTALPQAYEKIREELEKIGYLQTSLQPVAFVKFHVYLPNCPGALFDLLNYITSSKSSITFLDFDDRGQHPERLVVGLHIEDPNMIDALLNQLKSRYRLDILEYDTTGEKLDDTVFYLRLAQKLRSFIGSAEDDFLMRFLQDINHITQELSNLQKDPIEVFENILKVGDYLNRTSGDNFYADVQRVRIKDDIELFCFQPPCGGNIYLFDTSSERVMIDTGYGIYFQDIVNMLQYYGLGDLSRLKRIYITHADADHCGAAGCFPAPSYLNRETFLITRETSRAYGSSNQDCILEEVYTKIINLFSRFTPPSNTVLFPEVSLSDKIIEKRGVFPIIARFRIGDLKFEVLEGMGGHMHGEVFYFCPEEGLLFPEDAVINFKSLSPDRTAYNVLADYLMTSVNVDSKLAREERQSLLSLISEIDEQLARKNKKCLICCGHGSMSLLDNGKLIEYKGSERYVAGQKCISQENL” as the sequence, how does the protein production read?
**A.** The protein production was “failed”.

**Q.** For “MEQGMSKRILVPVAHGSEEMETVIIVDTLVRAGFQVTMAAVGDKLQVQGSRGVWLTAEQTLEACSAEAFDALALPGGVGGAQAFADSTALLALIDAFSQQGKLVAAICATPALVFAKQQKFVGARMTCHPNFFDHIPSERLSRQRVCYYATQHLLTSQGPGTALEFALAMIALLAGVELAQHVAAPMVLHPQQLTELSGFIDAQS”, which protein production is on record?
**A.** Its protein production is “not failed”.

**Q.** With “MEQLAKLSMTDRLTGLLNRGTWENLVDAEYERFRRYGQATSLVMFDIDHFKPVNDTYGHLAGDEVIRHTADVTRNNIRQSDSAGRYGGEEFGIILPETDAESARVICERIREAIEKSTVSTSAGDIQYTVSMGIAQLTETPENYMQWMQKADEALYKAKESGRNKVVVSLEHHHHHH” as the sequence, how does the protein production read?
**A.** Its protein production is “not failed”.

**Q.** Which protein production does the source give for “MEQMIFIRKDDKVEVFSEEEELKGSYYRAILEDNPTKSGHNKLKVRYLTQLNEHRLAPLTEFVDQRFIRPVPSEDVNDGVVFVEGLMVDAYLKDGWWTGVVVKTMEDEKFLVYFDCPPDIIQFEKKKLRVHLDWTGFKWIRPDNKELVKSVFSCGTMVELRFDCAWIPVIVIKELEKDKRFLVKYWNKSYSCRESKNLIVDSLRLRPMQPPLSVGKYELLDHVEAFSGFEWRQGVVRGIVFEGRYMVSFGATKEASQFNHSDIRPPMEWEDGVWHKRTKPKRQKETSLDGNRNVQTKEPPGNEMADDVKKESGLPITLGVTATKNKTQGKVSPVPMKNGFGNESTREKMPEEPKIKYYTRKRKRGGLKLNSYINKTVLSSDRTPNVVKNSASNAEENHAKHTIMVLPFAKKSPVWKTYESLEVFKSVSHSLHFSPLFETKQDFREGYAIGMMVTYFGLLEKFKDLEADVPVSQLNSLKDSFSELEKHGFNVTTPLSRIDKLLALKDRQLYIMEELKGFDKEMTNEFSKAKQEFDDMEQKILEVKHKIIELQRQEAALKEQKEAEKEQKDAAWKKICQMESCAKDLNVELEDVEFEFETILSAPW” here?
**A.** The protein production was “failed”.

**Q.** For “MEQNSGTSSASGRALFPLYAITFIGTLGFGIILTFLVFLVTDYGGNALVYGILASTYPAFQLIGAPVLGRWSDLYGRKKILLLSQIGTMLAWIIFFAALFFPVIPLIEVRSDLLGTFTITLPLLILFLARALDGATGGNVSVANAYLADLTSEEERNKNYGRMSVASNLGYVFGPAIAGVLGTTAYGEILPVSAALVISIIGTLIVLFLLPDSRPCAIEEYPESTGIRKILGQEQKECYQVEAGSKITFREVFKLEYIPFMLVVYFLIFLGFNIYYTAFPIFAVVALEWSPAELGIYFSVISALMAFVQGPVLAKLARRYRESIMVVGGGFILGLQFILIVSGDYLLLYLAAVFFAFGNGIMWPSILSILSKFAGKKYQGSVQGFAMSASSLASIIGLLAGGFLYTQFGVIAFLIAAAIIYLVVFLSFRLLRIEKEKLIETEAAKTPV”, which protein production is on record?
**A.** Its protein production is “failed”.

**Q.** For “MEQPQEEAPEVREEEEKEEVAEAEGAPELNGGPQHALPSSSYTDLSRSSSPPSLLDQLQMGCDGASCGSLNMECRVCGDKASGFHYGVHACEGCKGFFRRTIRMKLEYEKCERSCKIQKKNRNKCQYCRFQKCLALGMSHNAIRFGRMPEAEKRKLVAGLTANEGSQYNPQVADLKAFSKHIYNAYLKNFNMTKKKARSILTGKASHTAPFVIHDIETLWQAEKGLVWKQLVNGLPPYKEISVHVFYRCQCTTVETVRELTEFAKSIPSFSSLFLNDQVTLLKYGVHEAIFAMLASIVNKDGLLVANGSGFVTREFLRSLRKPFSDIIEPKFEFAVKFNALELDDSDLALFIAAIILCGGE”, which protein production is on record?
**A.** Its protein production is “not failed”.

**Q.** For “MEQRRLASTEWVDIVNEENEVIAQASREQMRAQCLRHRATYIVVHDGMGKILVQRRTETKDFLPGMLDATAGGVVQADEQLLESARREAEEELGIAGVPFAEHGQFYFEDKNCRVWGALFSCVSHGPFALQEDEVSEVCWLTPEEITARCDEFTPDSLKALALWMKRNAKNEAVETETAE”, which protein production is on record?
**A.** The protein production was “not failed”.

**Q.** Which protein production does the source give for “MEQRVLGGRYLLKDKVGTGGMATVYRAQDQVLDRTVAVKIMLPQYAGDATFAARFKQEAQAAAGLSSPYIVGVYDWGKDGDTYYIVMEYLRGTDLKSGIKSHGALDPKKVAQIGSQISSALSVAHKHEIIHRDIKPQNIMVLPDGNIKVMDFGIARAKNSHLTQDNNVLGTAHYVSPEQTRGQDLGPTSDIYSLGVVMYECATGRVPFDGDDAISVALKQVNELPIPPSQINSGVDADLERIILKCMEKDPTNRFQTADELRQVLNSYLSGRAVNVSEPTRIIGAPGELGATKTRELSDQTRAMVRPVSGVSGQNTARSSVSGSTGSYEVEEPKSNKNKIIAAVVAAVAVIGIVVAFATGLFGGEQVTVPDVLGKDQQTAVELIKEAGLEVGTIDQSYNDDVDEGKVAEQTPNGNTKKTKGTKVNLVISKGPKPSEKVEVPKLVGLTKDQAEAALASVGLKGNASEEANEADEGQVFEQGTEAGKEVAKGTTISYKVSSGPDTTSVPDLTDMTEAQARNALDMAGFGVDVSYQENDSVTEGTVISWNPSGKQKPGATITVVIAKKSGKATVPGNLYGKSISAAVTALNNAGFYNIGFCDQNGNPVSGNEDATVTGVSPTGKQSTDSTITLTVALSGSGSGSGTSTGDDSGTTN” here?
**A.** The protein production was “failed”.
